From patent US20180162952A1 (AbbVie / Abbott, published 2018)

Experiments:
[1] = biological target: T1, human PTK7, full length, expressed on transduced cells (human, UniProt Q13308 31-1070); experiment: cell-based or functional assay
T1 sequence: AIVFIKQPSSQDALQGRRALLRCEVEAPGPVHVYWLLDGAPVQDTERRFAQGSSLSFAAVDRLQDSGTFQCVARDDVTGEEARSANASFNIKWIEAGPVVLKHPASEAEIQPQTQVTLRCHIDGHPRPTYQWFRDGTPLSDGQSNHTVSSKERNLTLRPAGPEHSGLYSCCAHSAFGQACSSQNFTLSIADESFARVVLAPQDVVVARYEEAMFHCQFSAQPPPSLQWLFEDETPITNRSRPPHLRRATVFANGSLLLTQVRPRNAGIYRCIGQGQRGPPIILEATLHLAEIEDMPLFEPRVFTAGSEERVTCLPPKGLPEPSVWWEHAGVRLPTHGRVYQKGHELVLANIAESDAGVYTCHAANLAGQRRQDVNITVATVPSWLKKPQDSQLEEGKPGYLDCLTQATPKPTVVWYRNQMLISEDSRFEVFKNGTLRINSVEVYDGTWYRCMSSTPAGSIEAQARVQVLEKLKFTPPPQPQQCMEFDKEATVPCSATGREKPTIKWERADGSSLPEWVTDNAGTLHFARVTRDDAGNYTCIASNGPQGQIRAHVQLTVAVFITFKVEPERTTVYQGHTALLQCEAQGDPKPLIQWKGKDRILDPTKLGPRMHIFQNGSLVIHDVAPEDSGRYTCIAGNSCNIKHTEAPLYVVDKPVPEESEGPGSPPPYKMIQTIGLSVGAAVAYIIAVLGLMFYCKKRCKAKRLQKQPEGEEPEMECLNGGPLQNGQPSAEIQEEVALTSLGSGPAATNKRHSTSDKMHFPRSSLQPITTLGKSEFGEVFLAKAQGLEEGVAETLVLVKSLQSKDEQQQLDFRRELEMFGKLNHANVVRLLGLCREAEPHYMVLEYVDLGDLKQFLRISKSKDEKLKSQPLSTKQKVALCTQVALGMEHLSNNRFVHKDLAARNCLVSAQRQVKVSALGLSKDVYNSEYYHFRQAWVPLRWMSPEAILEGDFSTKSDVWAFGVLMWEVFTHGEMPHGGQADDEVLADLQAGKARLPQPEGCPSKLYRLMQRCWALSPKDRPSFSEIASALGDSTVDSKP

[2] = biological target: T2, PTK7 ECD Ig domains 1-2 Fc fusion (human); experiment: ELISA, Ig-domain Fc fusion captured by anti-human IgG Fc
T2 construct: Tested as supernatant of transfected 293 cells
T2 chain: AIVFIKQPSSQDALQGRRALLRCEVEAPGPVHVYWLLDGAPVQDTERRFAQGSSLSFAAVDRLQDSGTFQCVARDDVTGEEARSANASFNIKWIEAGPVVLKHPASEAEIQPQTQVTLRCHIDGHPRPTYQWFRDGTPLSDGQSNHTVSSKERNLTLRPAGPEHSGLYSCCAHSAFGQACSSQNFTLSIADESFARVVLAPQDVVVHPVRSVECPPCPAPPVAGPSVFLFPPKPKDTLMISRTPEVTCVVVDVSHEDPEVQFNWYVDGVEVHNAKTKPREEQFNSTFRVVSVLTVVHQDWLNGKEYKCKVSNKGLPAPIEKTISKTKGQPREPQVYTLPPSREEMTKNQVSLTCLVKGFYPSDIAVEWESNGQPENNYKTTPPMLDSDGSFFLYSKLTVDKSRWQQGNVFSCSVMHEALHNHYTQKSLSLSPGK
Protocol: Using these constructs several modulators were tested for their ability to recognize PTK7 proteins with deletions of defined Ig domains. Through an ELISA assay comprising the use of domain deleted constructs and run under standard conditions. In this regard PTK7 Ig domain Fc fusions were captured on ELISA plate coated with goat anti-human IgG Fc-specific (Jackson Immunoresearch) antibody. The ability of each murine anti-PTK7 antibody to bind the various deletion Fc fusion proteins was then detected with HRP-labeled goat anti-mouse Fc-specific antibody.

murine PTK7-His [3] = biological target: T3, murine PTK7-His (murine, UniProt Q8BKG3 23-696, limits assumed); experiment: ForteBio bio-layer interferometry, mouse PTK7-His against human PTK7-His
T3 construct: also called mouse PTK7-His; mouse PTK7
T3 sequence (looked up): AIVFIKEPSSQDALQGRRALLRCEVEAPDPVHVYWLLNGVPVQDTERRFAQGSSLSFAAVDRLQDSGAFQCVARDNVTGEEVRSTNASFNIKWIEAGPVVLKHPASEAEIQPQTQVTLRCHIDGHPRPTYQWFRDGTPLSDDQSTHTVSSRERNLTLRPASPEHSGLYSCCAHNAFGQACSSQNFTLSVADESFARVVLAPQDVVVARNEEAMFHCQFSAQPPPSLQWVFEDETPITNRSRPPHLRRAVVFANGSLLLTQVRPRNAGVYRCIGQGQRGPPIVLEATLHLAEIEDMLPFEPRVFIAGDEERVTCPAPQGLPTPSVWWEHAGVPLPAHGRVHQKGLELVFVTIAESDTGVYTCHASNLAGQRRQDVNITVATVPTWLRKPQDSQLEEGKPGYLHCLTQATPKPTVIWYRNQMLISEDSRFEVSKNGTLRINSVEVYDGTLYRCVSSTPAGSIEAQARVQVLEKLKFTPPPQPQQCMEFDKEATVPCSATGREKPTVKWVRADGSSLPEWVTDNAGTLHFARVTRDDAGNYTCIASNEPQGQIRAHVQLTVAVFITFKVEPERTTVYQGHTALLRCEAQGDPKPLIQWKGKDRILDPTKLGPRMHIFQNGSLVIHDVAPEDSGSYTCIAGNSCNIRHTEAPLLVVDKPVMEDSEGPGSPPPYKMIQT

murine PTK7-His [4] = biological target: T3, murine PTK7-His; experiment: ForteBio bio-layer interferometry, one antigen concentration (400 nM)

Row | Binder | EC50, saporin (Fab-ZAP) cell killing, 293.PTK7 Cells [1] [pM] | binding result [2] | binding to mouse PTK7 relative to human (murine PTK7-His [3]) [%] | binding result (murine PTK7-His [4])
1 | SC6.2.35 (antibody, V domains shown, Murine monoclonal antibody from a hybridoma; also called H2.35; SC6.H2) VH: QVQMQQSGAELMKPGASVKLSCKATGYTFTGYWIEWVKQRPGHGLEWIGEILPGSGRSNSNEKFKGKATFTADTSSNTAYMQLSSLTTEDSAIYYCARGKLSWGQGTLVTVSA VL: DIVLTQSPASLAVSLGQRATISCRASESVDSFGNSFMHWYQQKPGQPPKLLIYAASNLGSGVPARFSGSGSGTDFSLNIHPVEEDDSAMYFCQQSKEVPRTFGGGSRLEIKR | 0.65 | binds | ~10 | –
2 | SC6.10.2 (antibody, V domains shown, Murine monoclonal antibody from a hybridoma; also called H10.2; H10) VH: QVQLQQSGAELVRPGVSVKISCKGSGYRFTDYPIHWVKQSHAKSLEWIGIISTYYGDVTNNPKFRGKATMTVDKSSTTAYMELARLTSEDSAIYYCARNDLFAYWGQGTLVTVSA VL: DIVMTQSQKFMSTSVGDRVNVTCKASQNVGTNVVWYQQKTGQSPKALIHSASYRYSGVPDRFTGSGSGTDFTLTLSNVQSEDLAEYFCQHYNSFPYTFGGGTKLEIKR | 1.1 | – | – | no binding (tested: 400 nM)
